Molecular target: GATA-6 (Homo sapiens) (UniProt Q92908)
Assay: cell_activity
Details: luciferase transactivation in p53-/- MEFs

Chain of GATA-6 (Homo sapiens) (Q92908 147-595): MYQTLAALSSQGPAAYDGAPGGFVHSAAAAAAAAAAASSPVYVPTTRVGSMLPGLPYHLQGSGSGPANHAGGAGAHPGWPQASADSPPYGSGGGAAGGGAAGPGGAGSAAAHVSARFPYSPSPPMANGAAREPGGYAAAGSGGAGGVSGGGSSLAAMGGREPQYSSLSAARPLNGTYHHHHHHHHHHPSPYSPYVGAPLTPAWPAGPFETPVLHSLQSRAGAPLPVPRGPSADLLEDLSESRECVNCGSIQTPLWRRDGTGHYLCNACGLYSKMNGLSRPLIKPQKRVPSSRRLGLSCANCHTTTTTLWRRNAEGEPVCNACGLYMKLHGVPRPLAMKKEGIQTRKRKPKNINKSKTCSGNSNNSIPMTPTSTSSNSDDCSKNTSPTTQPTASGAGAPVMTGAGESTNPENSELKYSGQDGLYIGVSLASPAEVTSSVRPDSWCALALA

Work on p21 promoter 3.8 kbp yielded an activity of 3.7 fold.
